The experiment addresses CLSY3-3xF-BLRP (Arabidopsis) (UniProt F4I8S3). As to the kind of experiment: co-IP; streptavidin beads (M-280 Dynabeads) capture CLSY3-3xF-BLRP from flower extracts of F1 plants crossed to NRPD1-3xF WT or CYC-AAAA; anti-FLAG western blot; dilution series of the WT co-IP. (In general: A western blot detects proteins with antibodies after separation by electrophoresis.)
UniProt F4I8S3, sequence (F4I8S3 whole entry): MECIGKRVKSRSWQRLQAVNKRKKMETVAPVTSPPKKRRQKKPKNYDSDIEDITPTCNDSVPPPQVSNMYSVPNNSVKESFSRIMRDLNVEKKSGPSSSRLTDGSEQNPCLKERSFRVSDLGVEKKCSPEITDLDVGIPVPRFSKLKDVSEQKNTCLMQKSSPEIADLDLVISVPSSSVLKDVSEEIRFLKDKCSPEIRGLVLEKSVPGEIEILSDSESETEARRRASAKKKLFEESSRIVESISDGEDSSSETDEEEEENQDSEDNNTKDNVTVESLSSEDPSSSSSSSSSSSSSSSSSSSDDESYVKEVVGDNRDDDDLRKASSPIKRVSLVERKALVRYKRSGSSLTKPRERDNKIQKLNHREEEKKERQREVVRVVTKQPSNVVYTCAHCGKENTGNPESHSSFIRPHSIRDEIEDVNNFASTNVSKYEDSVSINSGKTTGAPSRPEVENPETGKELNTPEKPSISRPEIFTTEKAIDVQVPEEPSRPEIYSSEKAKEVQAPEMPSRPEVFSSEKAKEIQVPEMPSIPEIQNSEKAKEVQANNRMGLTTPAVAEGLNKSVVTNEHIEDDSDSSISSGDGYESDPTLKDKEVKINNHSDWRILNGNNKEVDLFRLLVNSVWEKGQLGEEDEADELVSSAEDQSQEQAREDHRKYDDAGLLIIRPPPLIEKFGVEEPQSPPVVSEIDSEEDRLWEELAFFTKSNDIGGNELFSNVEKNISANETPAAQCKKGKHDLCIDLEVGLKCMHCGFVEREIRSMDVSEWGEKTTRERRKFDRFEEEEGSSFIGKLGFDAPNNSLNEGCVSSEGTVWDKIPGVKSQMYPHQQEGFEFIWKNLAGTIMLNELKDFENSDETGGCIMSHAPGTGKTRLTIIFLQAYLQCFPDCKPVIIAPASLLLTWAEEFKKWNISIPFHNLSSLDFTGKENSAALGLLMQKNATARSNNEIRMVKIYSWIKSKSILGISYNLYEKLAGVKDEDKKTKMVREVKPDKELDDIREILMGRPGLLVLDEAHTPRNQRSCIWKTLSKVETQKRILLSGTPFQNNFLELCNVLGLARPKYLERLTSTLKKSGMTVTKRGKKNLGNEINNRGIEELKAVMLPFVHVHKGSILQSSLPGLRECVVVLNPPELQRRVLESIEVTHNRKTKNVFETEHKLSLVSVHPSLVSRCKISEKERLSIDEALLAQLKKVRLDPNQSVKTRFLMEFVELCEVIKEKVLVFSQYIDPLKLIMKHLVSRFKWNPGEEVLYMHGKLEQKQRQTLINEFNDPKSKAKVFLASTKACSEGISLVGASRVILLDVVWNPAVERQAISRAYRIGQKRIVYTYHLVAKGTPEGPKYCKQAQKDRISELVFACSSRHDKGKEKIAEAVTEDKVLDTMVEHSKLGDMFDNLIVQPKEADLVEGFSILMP

On to “NRPD1-3xF_(CYC-AAAA) (from UniProt Q9LQ02 1-1453) (natural protein)”, for which the fold reduction of the co-IP against NRPD1-3xFWT is > 8 fold.

For the origin of these results see PMC11603163.
